Biological target: recombinant conformational HCV E2 antigen (HCV genotype 1a) (hepatitis C virus, HCV1 (genotype 1a)) (UniProt P26664)
Test: NOB assay: control Fab pre-mixed with E2 1a, E2 binding to MOLT-4 cells by flow cytometry; 50% reduction titer, Exp. I

Chain of recombinant conformational HCV E2 antigen (HCV genotype 1a) (hepatitis C virus, HCV1 (genotype 1a)) (P26664 383-715): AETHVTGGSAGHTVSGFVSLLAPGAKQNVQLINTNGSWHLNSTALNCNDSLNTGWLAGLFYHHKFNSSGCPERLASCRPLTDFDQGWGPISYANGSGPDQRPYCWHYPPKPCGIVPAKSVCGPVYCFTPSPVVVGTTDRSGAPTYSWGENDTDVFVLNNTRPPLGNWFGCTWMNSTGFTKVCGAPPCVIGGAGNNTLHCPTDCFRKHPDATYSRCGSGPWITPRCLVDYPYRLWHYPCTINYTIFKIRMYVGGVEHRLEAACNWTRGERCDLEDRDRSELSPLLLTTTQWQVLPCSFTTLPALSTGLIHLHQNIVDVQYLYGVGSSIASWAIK

Substance: negative control Fab clone b12 directed to HIV-1 envelope glycoprotein gp120
- IC50: > 10 µg/mL

Source: patent US6747136
